Assay results taken from article PMC10385375, “In Situ Monitoring of Aptamer–Protein Binding on a ZnO Surface Using Spectroscopic Ellipsometry”.

Target: SARS-CoV-2 spike protein (SARS-CoV-2, UniProt P0DTC2)
Test: spectroscopic ellipsometry, immobilised aptamer; PBS (137 mM NaCl, 2.7 mM KCl, 10 mM phosphate, pH 7.4); […]
Settings: protein: commercial; chain copies: 3

B1: spike aptamer (ssDNA)
DNA: CAGCACCGACCTTGTGCTTTGGGAGTGCTGGTCCAAGGGCGTTAATGGACA
modifications: 5' amine
binding result: binds
